The values that follow come from article PMC7904846 (2021).

B1: CD105 (natural protein)
chain: ETVHCDLQPVGPERGEVTYTTSQVSKGCVAQAPNAILEVHVLFLEFPTGPSQLELTLQASKQNGTWPREVLLVLSVNSSVFLHLQALGIPLHLAYNSSLVTFQEPPGVNTTELPSFPKTQILEWAAERGPITSAAELNDPQSILLRLGQAQGSLSFCMLEASQDMGRTLEWRPRTPALVRGCHLEGVAGHKEAHILRVLPGHSAGPRTVTVKVELSCAPGDLDAVLILQGPPYVSWLIDANHNMQIWTTGEYSFKIFPEKNIRGFKLPDTPQGLLGEARMLNASIVASFVELPLASIVSLHASSCGGRLQTSPAPIQTTPPKDTCSPELLMSLIQTKCADDAMTLVLKKELVAHLKCTITGLTFWDPSCEAEDRGDKFVLRSAYSSCGMQVSASMISNEAVVNILSSSSPQRKKVHCLNMDSLSFQLGLYLSPHFLQASNTIEPGQQSFVQVRVSPSVSEFLLQLDSCHLDLGPEGGTVELIQGRAAKGNCVSLLSPSPEGDPRFSFLLHFYTVPIPKTGTLSCTVALRPKTGSQDQEVHRTVFMRLNIISPDLSGCTSKGLVLPAVLGITFGAFLIGALLTAALWYIYSHTRSPSKREPVVAVAAPASSESSSTNHSIGSTQSTPCSTSSMA
B2: Nb C184 (VHH)
VHH: QVQLQESGGGSVQAGGSLRLSCVASGYTVSRGYMGWFRQAPGKEREAVAAIRTGSGSTYYADSVKGRFTISQDNAKNTVYLQMNSLKHEDTGMYYCAASLWYGGNWQSWGSYNYWGQGTQVTVSS

Among the targets are C168; C59; C68; C86; C50.
Common to all, as to assay: SPR
A general note: SPR reads the build-up and loss of mass on a sensor chip optically.

Experiment [1] concerns the target B1.
The target of experiment [2] is B1.

The Kd is a measure of binding affinity in units of concentration. The low end stands for higher affinity, the high end for lower affinity. Usually koff stands for a measure of how fast the partners let go of each other. Take B1: the Kd with C168 amounted to 89 nM; in the experiment with C59, 65.9 nM; with C68 it was 28.9 nM; with C86 it was 42.6 nM; with C50 it was 16.2 nM. Also, the koff came to 0.00391 s⁻¹ with C168; 0.00255 s⁻¹ with C59; 0.00171 s⁻¹ with C68; 0.00144 s⁻¹ with C86; 0.00132 s⁻¹ in the experiment with C50.

B2 gave a Kd with CD105 [1] of 44.7 nM. This molecule gave a koff with CD105 [2] of 0.00188 s⁻¹.
